# Non-standard residues stand in square brackets, D forms with d. No end group written: not given here. Tic = O=C(O)[C@@H]1Cc2ccccc2CN1
# Columns and labels:
# [1] = target: CMKLR1 (recombinant, species not given); assay: cell-based or functional assay
# [2] = target: CMKLR1 (recombinant, species not given); assay: cell-based or functional assay; remark: listed apart in the source
Binder,"β-Arrestin recruitment, EC50 [1]","β-Arrestin recruitment, Max Efficacy (% 10 µM s-Stable chem9) [1]","CMKLR1 canonical Gαi signal transduction, EC50 (BSA) (no wash) [2]","CMKLR1 canonical Gαi signal transduction, EC50 (no wash) [2]","CMKLR1 canonical Gαi signal transduction, EC50 (wash × 3) [2]","CMKLR1 canonical Gαi signal transduction, EC50 (BSA) (wash × 3) [2]"
"[dY]FLP[dS]QF[dA][Tic]S (also: C18:3 (linolenic acid) lipid tail, linker and attachment not given here) [C18:3 lipidated stable chemerin 9 analog]",181 nM,110%,73.3 nM,45.7 nM,350 nM,
"[dY]FLP[dS]QF[dA][Tic]S (also: cholesterol lipid tail, linker and attachment not given here) [Cholesterol lipidated stable chemerin 9 analog]",131 nM,149%,108 nM,84.5 nM,445 nM,13500 nM
"[dY]FLP[dS]QF[dA][Tic]S (also: C10 lipid tail, linker and attachment not given here) [C10 lipidated stable chemerin 9 analog]",23.1 nM,98.3%,17.8 nM,17.8 nM,,
"[dY]FLP[dS]QF[dA][Tic]S (also: C16 (palmitic acid) lipid tail, linker and attachment not given here) [C16 lipidated stable chemerin 9 analog]",3.23 nM,165%,6.4 nM,2.7 nM,18.6 nM,520 nM
"[dY]FLP[dS]QF[dA][Tic]S (also: C18:1 lipid tail (which C18:1 acid not given here), linker and attachment not given here) [C18:1 lipidated stable chemerin 9 analog]",17.4 nM,160%,12.7 nM,4.7 nM,26.4 nM,2860 nM
"[dY]FLP[dS]QF[dA][Tic]S (also: C14:1 lipid tail, linker and attachment not given here) [C14:1 lipidated stable chemerin 9 analog]",51.9 nM,124%,26.2 nM,9.3 nM,100 nM,1820 nM
"[dY]FLP[dS]QF[dA][Tic]S (also: C4 lipid tail, linker and attachment not given here) [C4 lipidated stable chemerin 9 analog]",223 nM,89.7%,11 nM,79.3 nM,,
"[dY]FLP[dS]QF[dA][Tic]S (also: C16:1 lipid tail, linker and attachment not given here) [C16:1 lipidated stable chemerin 9 analog]",80.8 nM,154%,29.5 nM,12 nM,42.2 nM,3140 nM
[dY]FLP[dS]QF[dA][Tic]S [s-Stable Chem (soluble stable chemerin peptide)],31.9 nM,100%,5.1 nM,35.2 nM,,
